Assay results: the supplement of paper PMC9112550, “Optimization of the antimicrobial peptide Bac7 by deep mutational scanning” (BMC Biology, 2022)

Tested on: Escherichia coli TOP10
Assay: shrunken log2 fold change of peptide-encoding DNA abundance (4.5 h post-induction vs induction); higher = less antimicrobial activity (less host growth inhibition)
Details: time post-induction: 4.5 h; library: site-saturation at positions 5, 18, 19, 20
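Note: peptides expressed intracellularly from a pBAD plasmid library in pooled LB shake-flask culture, induced with 0.3% L-arabinose, DNA abundance read by NGS, three biological replicates, DESeq2 with apeglm shrinkage.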

Sequence	shrunken log2 fold change
RRIRCRPPRLPRPRPRPASQPRP	-0.0515
RRIRARPPRLPRPRPRPDDTPRP	0.468
RRIRERPPRLPRPRPRPMNYPRP	-0.981
RRIRFRPPRLPRPRPRPHAHPRP	-0.0397
RRIRPRPPRLPRPRPRPDESPRP	-0.188
RRIRFRPPRLPRPRPRPDQIPRP	-0.0948
RRIRHRPPRLPRPRPRPLGVPRP	-0.109
RRIRMRPPRLPRPRPRPRQSPRP	0.982
RRIRSRPPRLPRPRPRPLFYPRP	-0.413
RRIRCRPPRLPRPRPRPCYWPRP	-0.595
RRIRKRPPRLPRPRPRPMMFPRP	-0.0431
RRIRWRPPRLPRPRPRPMNPPRP	-0.153
RRIRSRPPRLPRPRPRPHHPPRP	-0.369
RRIRCRPPRLPRPRPRPSVEPRP	0.00103
RRIRRRPPRLPRPRPRPVQCPRP	-0.138
RRIRLRPPRLPRPRPRPVEDPRP	0.0985
RRIRIRPPRLPRPRPRPWHGPRP	-0.0996
RRIRIRPPRLPRPRPRPAFEPRP	-0.117
RRIRDRPPRLPRPRPRPIPYPRP	-0.0147
RRIRFRPPRLPRPRPRPDVNPRP	0.00585
RRIRFRPPRLPRPRPRPIMEPRP	-0.319
RRIRYRPPRLPRPRPRPAVMPRP	-0.231

Sequence	shrunken log2 fold change
RRIRCRPPRLPRPRPRPIAMPRP	-0.0964
RRIRNRPPRLPRPRPRPDTSPRP	-0.0648
RRIRTRPPRLPRPRPRPEYWPRP	-0.00483
RRIRLRPPRLPRPRPRPFNRPRP	-0.00257
RRIRVRPPRLPRPRPRPWPSPRP	0.143
RRIRARPPRLPRPRPRPHMHPRP	-0.152
RRIRVRPPRLPRPRPRPQQDPRP	0.151
RRIRIRPPRLPRPRPRPPAMPRP	1.68
RRIRLRPPRLPRPRPRPIPNPRP	-0.135
RRIRPRPPRLPRPRPRPANPPRP	0.13
RRIRERPPRLPRPRPRPPLVPRP	-0.0197
RRIRMRPPRLPRPRPRPAHLPRP	0.0862
RRIRNRPPRLPRPRPRPSGKPRP	0.0521
RRIRHRPPRLPRPRPRPFTVPRP	-0.0532
RRIRVRPPRLPRPRPRPHSIPRP	-0.155
RRIRVRPPRLPRPRPRPGLWPRP	0.76
RRIRNRPPRLPRPRPRPPHVPRP	0.147
RRIRARPPRLPRPRPRPWVNPRP	-0.246
RRIRARPPRLPRPRPRPDMDPRP	0.3
RRIRRRPPRLPRPRPRPADTPRP	0.423
RRIRDRPPRLPRPRPRPLDCPRP	0.118
RRIRCRPPRLPRPRPRPVIRPRP	-0.733

Sequence	shrunken log2 fold change
RRIRRRPPRLPRPRPRPNGQPRP	-0.00184
RRIRHRPPRLPRPRPRPMVTPRP	-1.08
RRIRWRPPRLPRPRPRPTVNPRP	0.0302
RRIRDRPPRLPRPRPRPDFDPRP	0.541
RRIRQRPPRLPRPRPRPKCRPRP	-0.0264
RRIRARPPRLPRPRPRPYHNPRP	-1.16
RRIRWRPPRLPRPRPRPCIVPRP	0.0112
RRIRVRPPRLPRPRPRPHALPRP	-0.129
RRIRSRPPRLPRPRPRPPVYPRP	0.0599
RRIRFRPPRLPRPRPRPDYHPRP	-0.935
RRIRKRPPRLPRPRPRPMLKPRP	0.954
RRIRERPPRLPRPRPRPPNKPRP	-0.243
RRIRTRPPRLPRPRPRPPSYPRP	-0.0622
RRIRRRPPRLPRPRPRPNSHPRP	-0.11
RRIRNRPPRLPRPRPRPPRWPRP	0.147
RRIRKRPPRLPRPRPRPTFVPRP	0.362
RRIRLRPPRLPRPRPRPADRPRP	-0.0121
RRIRVRPPRLPRPRPRPRRHPRP	0.252
RRIRARPPRLPRPRPRPVSLPRP	-0.0174
RRIRLRPPRLPRPRPRPNMQPRP	-0.171
RRIRSRPPRLPRPRPRPHVFPRP	2.95
RRIRHRPPRLPRPRPRPAWRPRP	0.654

Sequence	shrunken log2 fold change
RRIRTRPPRLPRPRPRPSIFPRP	-0.122
RRIRPRPPRLPRPRPRPCKFPRP	-0.0234
RRIRERPPRLPRPRPRPDCLPRP	-0.428
RRIRHRPPRLPRPRPRPQFVPRP	-0.163
RRIRSRPPRLPRPRPRPNWSPRP	-0.249
RRIRRRPPRLPRPRPRPDIHPRP	-0.122
RRIRWRPPRLPRPRPRPVMTPRP	0.569
RRIRYRPPRLPRPRPRPDVNPRP	-0.0115
RRIRSRPPRLPRPRPRPLLAPRP	0.602
RRIRLRPPRLPRPRPRPFRCPRP	-0.181
RRIRRRPPRLPRPRPRPRMYPRP	-0.152
RRIRARPPRLPRPRPRPNMQPRP	0.18
RRIRQRPPRLPRPRPRPMQRPRP	0.416
RRIRYRPPRLPRPRPRPSQPPRP	-0.0421
RRIRVRPPRLPRPRPRPIRIPRP	-0.0273
RRIRLRPPRLPRPRPRPHNYPRP	-0.749
RRIRYRPPRLPRPRPRPDNSPRP	-0.779
RRIRHRPPRLPRPRPRPWGDPRP	0.0821
RRIRLRPPRLPRPRPRPFKCPRP	2.83
RRIRRRPPRLPRPRPRPATFPRP	0.0785
RRIRYRPPRLPRPRPRPGWEPRP	-0.143
RRIRPRPPRLPRPRPRPWHGPRP	0.0257

Sequence	shrunken log2 fold change
RRIRMRPPRLPRPRPRPGRPPRP	0.383
RRIRRRPPRLPRPRPRPQAWPRP	0.0536
RRIRFRPPRLPRPRPRPAHYPRP	-0.059
RRIRNRPPRLPRPRPRPVMKPRP	0.0939
RRIRIRPPRLPRPRPRPNHCPRP	-0.937
RRIRFRPPRLPRPRPRPDDMPRP	-0.0994
RRIRMRPPRLPRPRPRPNRCPRP	0.172
RRIRTRPPRLPRPRPRPPCVPRP	-0.121
RRIRDRPPRLPRPRPRPWSAPRP	-0.347
RRIRLRPPRLPRPRPRPHPKPRP	-0.0255
RRIRYRPPRLPRPRPRPDGTPRP	0.0319
RRIRSRPPRLPRPRPRPQHDPRP	-0.227
RRIRPRPPRLPRPRPRPNIRPRP	-0.743
RRIRERPPRLPRPRPRPLVSPRP	-0.055
RRIRIRPPRLPRPRPRPPQMPRP	-0.0135
RRIRCRPPRLPRPRPRPHYVPRP	-0.78
RRIRVRPPRLPRPRPRPRNKPRP	-0.136
RRIRVRPPRLPRPRPRPMYGPRP	-0.116
RRIRCRPPRLPRPRPRPKQCPRP	0.269
RRIRHRPPRLPRPRPRPIMHPRP	-0.375
RRIRNRPPRLPRPRPRPGIYPRP	-0.105
